Experimental data taken from patent publication US20170130226, “APTAMERS AGAINST EGFR AND THERAPEUTIC USES THEREOF” (ALTERMUNE LIMITED, published 2017).

Biological target: EGFR (UniProt P00533 P00533:25-645)
Test: SPR; PBS, 5 mM MgCl2, 20 C
Conditions: tags: R&D Systems; amine-coupled to sensor chip; label: 5' biotin
Experimental: Aptamer binding to EGFR recombinant protein was assessed by surface plasmon resonance (SPR). SPR experiments were performed on a 404pi system (BiOptix, Boulder, Colo.), at a constant temperature of 20° C., 20 μL min⁻¹ flow rate, using running buffer (degassed PBS, 5 mM MgCl₂, 0.05% Tween) for all coupling and capture steps. 0.1 M N-hydroxysuccinimide (NHS) in MOPS, 0.4 M 1-ethyl-3-(3-dimethylaminopropyl) carbodiimide hydrochloride (EDC), 1 M ethanolamine hydrochloride (pH 8.5) and 10 mM sodium acetate pH 4.5, were from Sigma (St. Louis, Mo.). EGFR was obtained from R&D Systems (Minneapolis, Minn.). Three 96 well plates of oligonucleotides were synthesized by solid phase phosphoramidite chemistry by Boston Open Labs (Cambridge, Mass.) with a 5′ biotin.
The surface in all four channels of a CDM150 sensor chip (BiOptix) was activated by injecting 140 μL of a 1:1 mixture (v/v) of EDC and NHS. Then 350 μL of 285 nM EGFR in 10 mM sodium acetate pH 4.5 was injected in all 4 channels and covalently bound to a density of ˜8000 Response Units (RU) over 1050 sec. Finally, the surface was blocked by an injection of 200 μL 1 M ethanolamine hydrochloride.

Binding result, binds:
GGACGGAUUUAAUCGCCGUAGAAAAGCAUGUCAAAGCCGGAACCGUCC (ssRNA, 2'-F all C and U; 2'-OMe A7) [ALT102064.01]
GGACGGAUUUAAUCGCCGUAGAAAAGCAUGUCAAAGCCGGAACCGUCC (ssRNA, 2'-F all C and U except 2'-OMe C37) [ALT102094.01]
GGACGGAUUUAAUCGCCGUAGAAAAGCAUGUCAAAGCCGGAACCGUCC (ssRNA, 2'-F all C and U; 2'-OMe G2) [ALT102059.01]
GGACGGAUUUAAUCGCCGUAGAAAAGCAUGUCAAAGCCGGAACCGUCC (ssRNA, 2'-F all C and U; 2'-OMe G21) [ALT102078.01]
GGACGGAUUUAAUCGCCGUAGAAAAGCAUGUCAAAGCCGGAACCGUCC (ssRNA, 2'-F all C and U; 2'-OMe G30) [ALT102087.01]
GGACGGAUUUAAUCGCCGUAGAAAAGCAUGUCAAAGCCGGAACCGUCC (ssRNA, 2'-F all C and U; 2'-OMe G40) [ALT102097.01]
GGACGGAUUUAAUCGCCGUAGAAAAGCAUGUCAAAGCCGGAACCGUCC (ssRNA, 2'-F all C and U except 2'-OMe C48) [ALT102105.01]
GGACGGAUUUAAUCGCCGUAGAAAAGCAUGUCAAAGCCGGAACCGUCC (ssRNA, 2'-F all C and U and A20) [ALT102116.01]
GGACGGAUUUAAUCGCCGUAGAAAAGCAUGUCAAAGCCGGAACCGUCC (ssRNA, 2'-F all C and U and A24) [ALT102120.01]
GGACGGAUUUAAUCGCCGUAGAAAAGCAUGUCAAAGCCGGAACCGUCC (ssRNA, 2'-F all C and U; 2'-OMe A3) [ALT102060.01]
GGACGGAUUUAAUCGCCGUAGAAAAGCAUGUCAAAGCCGGAACCGUCC (ssRNA, 2'-F all C and U except 2'-OMe U9) [ALT102066.01]
GGACGGAUUUAAUCGCCGUAGAAAAGCAUGUCAAAGCCGGAACCGUCC (ssRNA, 2'-F all C and U except 2'-OMe C38) [ALT102095.01]
GGACGGAUUUAAUCGCCGUAGAAAAGCAUGUCAAAGCCGGAACCGUCC (ssRNA, 2'-F all C and U except 2'-OMe C16) [ALT102073.01]
GGACGGAUUUAAUCGCCGUAGAAAAGCAUGUCAAAGCCGGAACCGUCC (ssRNA, 2'-F all C and U; 2'-OMe G15) [ALT102072.01]
GGACGGAUUUAAUCGCCGUAGAAAAGCAUGUCAAAGCCGGAACCGUCC (ssRNA, 2'-F all C and U; 2'-OMe A41) [ALT102098.01]
GGACGGAUUUAAUCGCCGUAGAAAAGCAUGUCAAAGCCGGAACCGUCC (ssRNA, 2'-F all C and U and G15) [ALT102114.01]
GGACGGAUUUAAUCGCCGUAGAAAAGCAUGUCAAAGCCGGAACCGUCC (ssRNA, 2'-F all C and U except 2'-OMe U46) [ALT102103.01]
GGACGGAUUUAAUCGCCGUAGAAAAGCAUGUCAAAGCCGGAACCGUCC (ssRNA, 2'-F all C and U and A22) [ALT102118.01]
GGACGGAUUUAAUCGCCGUAGAAAAGCAUGUCAAAGCCGGAACCGUCC (ssRNA, 2'-F all C and U except 2'-OMe C47) [ALT102104.01]
GGACGGAUUUAAUCGCCGUAGAAAAGCAUGUCAAAGCCGGAACCGUCC (ssRNA, 2'-F all C and U; 2'-OMe G26) [ALT102083.01]
GGACGGAUUUAAUCGCCGUAGAAAAGCAUGUCAAAGCCGGAACCGUCC (ssRNA, 2'-F all C and U except 2'-OMe U8) [ALT102065.01]
GGACGGAUUUAAUCGCCGUAGAAAAGCAUGUCAAAGCCGGAACCGUCC (ssRNA, 2'-F all C and U and A28) [ALT102123.01]
GGACGGAUUUAAUCGCCGUAGAAAAGCAUGUCAAAGCCGGAACCGUCC (ssRNA, 2'-F all C and U and G5) [ALT102109.01]
GGACGGAUUUAAUCGCCGUAGAAAAGCAUGUCAAAGCCGGAACCGUCC (ssRNA, 2'-F all C and U; 2'-OMe G18) [ALT102075.01]
GGACGGAUUUAAUCGCCGUAGAAAAGCAUGUCAAAGCCGGAACCGUCC (ssRNA, 2'-F all C and U; 2'-OMe A33) [ALT102090.01]
GGACGGAUUUAAUCGCCGUAGAAAAGCAUGUCAAAGCCGGAACCGUCC (ssRNA, 2'-F all C and U and G26) [ALT102122.01]
GGACGGAUUUAAUCGCCGUAGAAAAGCAUGUCAAAGCCGGAACCGUCC (ssRNA, 2'-F all C and U and A7) [ALT102111.01]
GGACGGAUUUAAUCGCCGUAGAAAAGCAUGUCAAAGCCGGAACCGUCC (ssRNA, 2'-F all C and U; 2'-OMe A24) [ALT102081.01]
GGACGGAUUUAAUCGCCGUAGAAAAGCAUGUCAAAGCCGGAACCGUCC (ssRNA, 2'-F all C and U and G2) [ALT102107.01]
GGACGGAUUUAAUCGCCGUAGAAAAGCAUGUCAAAGCCGGAACCGUCC (ssRNA, 2'-F all C and U; 2'-OMe A20) [ALT102077.01]
GGACGGAUUUAAUCGCCGUAGAAAAGCAUGUCAAAGCCGGAACCGUCC (ssRNA, 2'-F all C and U; 2'-OMe G45) [ALT102102.01]
GGACGGAUUUAAUCGCCGUAGAAAAGCAUGUCAAAGCCGGAACCGUCC (ssRNA, 2'-F all C and U except 2'-OMe C27) [ALT102084.01]
GGACGGAUUUAAUCGCCGUAGAAAAGCAUGUCAAAGCCGGAACCGUCC (ssRNA, 2'-F all C and U and A23) [ALT102119.01]
GGACGGAUUUAAUCGCCGUAGAAAAGCAUGUCAAAGCCGGAACCGUCC (ssRNA, 2'-F all C and U; 2'-OMe G36) [ALT102093.01]
GGACGGAUUUAAUCGCCGUAGAAAAGCAUGUCAAAGCCGGAACCGUCC (ssRNA, 2'-F all C and U; 2'-OMe G39) [ALT102096.01]
GGACGGAUUUAAUCGCCGUAGAAAAGCAUGUCAAAGCCGGAACCGUCC (ssRNA, 2'-F all C and U and G21) [ALT102117.01]
GGACGGAUUUAAUCGCCGUAGAAAAGCAUGUCAAAGCCGGAACCGUCC (ssRNA, 2'-F all C and U and A25) [ALT102121.01]
GGACGGAUUUAAUCGCCGUAGAAAAGCAUGUCAAAGCCGGAACCGUCC (ssRNA, 2'-F all C and U except 2'-OMe U19) [ALT102076.01]
GGACGGAUUUAAUCGCCGUAGAAAAGCAUGUCAAAGCCGGAACCGUCC (ssRNA, 2'-F all C and U; 2'-OMe A23) [ALT102080.01]
GGACGGAUUUAAUCGCCGUAGAAAAGCAUGUCAAAGCCGGAACCGUCC (ssRNA, 2'-F all C and U and A11) [ALT102112.01]
GGACGGAUUUAAUCGCCGUAGAAAAGCAUGUCAAAGCCGGAACCGUCC (ssRNA, 2'-F all C and U and A3) [ALT102108.01]
GGACGGAUUUAAUCGCCGUAGAAAAGCAUGUCAAAGCCGGAACCGUCC (ssRNA, 2'-F all C and U and G6) [ALT102110.01]
GGACGGAUUUAAUCGCCGUAGAAAAGCAUGUCAAAGCCGGAACCGUCC (ssRNA, 2'-F all C and U; 2'-OMe G1) [ALT102058.01]
GGACGGAUUUAAUCGCCGUAGAAAAGCAUGUCAAAGCCGGAACCGUCC (ssRNA, 2'-F all C and U; 2'-OMe A28) [ALT102085.01]
